Measured values from US6680174.

Biological target: mouse GDF-9 receptor on granulosa cells (mouse)
Assay: cell-based or functional assay

COX-2 mRNA (RT-PCR) after 24 hours with 100 ng/ml GDF-9: 50 fold
HAS2 expression (RT-PCR) after 5 hours, 50 ng/ml and 100 ng/ml mGDF-9 against 10 ng/ml: 5 to 10 fold
HAS2 expression (RT-PCR), granulosa cells cultured ~20 hrs with mGDF-9 media, against CHO control: 10 fold
HAS2 mRNA (Northern blot, 4.8 kb and 3.2 kb forms) after 5 hours with 50 ng/ml GDF-9: 9.7 fold
LH receptor mRNA (RT-PCR) with 10 ng/ml FSH, control-treated against cells treated with 100 ng/ml GDF-9: 30 fold
cumulus expansion of oocytectomized complexes cultured 18 hours with 100 ng/ml GDF-9 (out of 44 complexes): 40
fold decrease in HAS2 expression without GDF-9 (0-24 hours) against the peak level induced by 100 ng/ml GDF-9: 10 fold
uPA RT-PCR band intensity at 5 hours, 100 ng/ml GDF-9, normalized to HPRT: 15 % of control
uPA RT-PCR band intensity at 9 hours, 100 ng/ml GDF-9, normalized to HPRT: 9 % of control
uPA mRNA (Northern blot) with 50 ng/ml GDF-9: 40 % of control
B1: recombinant mouse GDF-9, cleaved, mature, glycosylated form (21 kD) (ligand, UniProt Q07105 307-441, looked up)
chain: GQKAIRSEAKGPLLTASFNLSEYFKQFLFPQNECELHDFRLSFSQLKWDNWIVAPHRYNPRYCKGDCPRAVRHRYGSPVHTMVQNIIYEKLDPSVPRPSCVPGKYSPLSVLTIEPDGSIAYKEYEDMIATRCTCR
modifications: one N-linked oligosaccharide (single N-linked glycosylation site, Asn325)
